Experimental findings from article PMC12676778, “Long-tailed class I myosins rely on tail-mediated phosphoinositide recognition for specific membrane recruitment” (Cell Communication and Signaling : CCS, 2025) are described below.

The target of test [1] is microtubules (UniProt P02550).
A further test concerns the target F-actin (UniProt P68135). Nature of the test: co-sedimentation; YFP fluorescence of pellet and supernatant; increasing F-actin concentrations; 5 mM Tris pH 7.4, 100 mM KCl, 0.04% NaN3, 2 mM MgCl2; 20,000 g, 30 min, 4 °C.
The target of test [2] is microtubules (UniProt P02550). The source holds these as a separate data set.

pKd: −log10 of the molar value.

Chain of microtubules (P02550 whole entry, chain 1 of 2): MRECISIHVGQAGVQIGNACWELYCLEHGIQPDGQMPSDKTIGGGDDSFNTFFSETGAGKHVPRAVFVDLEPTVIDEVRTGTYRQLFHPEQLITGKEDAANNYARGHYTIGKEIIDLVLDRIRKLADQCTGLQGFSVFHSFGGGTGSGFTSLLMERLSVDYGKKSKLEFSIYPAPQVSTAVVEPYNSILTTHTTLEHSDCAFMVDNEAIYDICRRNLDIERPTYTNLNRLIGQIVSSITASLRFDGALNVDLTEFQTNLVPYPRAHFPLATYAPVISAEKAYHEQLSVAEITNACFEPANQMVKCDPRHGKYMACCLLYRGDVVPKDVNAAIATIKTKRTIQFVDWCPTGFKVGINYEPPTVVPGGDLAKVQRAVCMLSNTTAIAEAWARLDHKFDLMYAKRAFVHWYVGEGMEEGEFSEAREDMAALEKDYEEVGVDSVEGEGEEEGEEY
Chain of microtubules (P02554 whole entry, chain 2 of 2, further chain): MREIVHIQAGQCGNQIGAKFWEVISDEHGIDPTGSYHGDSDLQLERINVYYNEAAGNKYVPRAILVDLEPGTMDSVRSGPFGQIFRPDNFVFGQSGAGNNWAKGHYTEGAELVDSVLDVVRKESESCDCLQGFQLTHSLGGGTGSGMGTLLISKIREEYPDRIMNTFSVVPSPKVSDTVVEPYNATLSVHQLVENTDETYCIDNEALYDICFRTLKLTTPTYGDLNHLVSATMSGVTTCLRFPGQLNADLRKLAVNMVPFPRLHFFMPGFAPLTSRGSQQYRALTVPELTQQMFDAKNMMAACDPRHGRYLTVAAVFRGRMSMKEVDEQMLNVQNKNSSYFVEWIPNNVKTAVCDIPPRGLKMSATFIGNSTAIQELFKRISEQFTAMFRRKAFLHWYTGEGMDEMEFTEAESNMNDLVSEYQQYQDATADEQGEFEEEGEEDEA

In general, pKd refers to the Kd on a negative log10 scale, so that one unit is a factor of ten. Regarding “myosin-1D tail (amino acids 717–1113) (domain or fragment)”, the cold-induced depolymerization assays of microtubules, IC50 with microtubules [1] was 20 nM. Moreover, the pKd with F-actin is 4.92. For the same substance, in the test with microtubules [2], the inhibition of the cold-induced depolymerization of microtubules, IC50 is 15 nM.
